We go through 21 variants from the RNAGym collection of RNA variant scans (doi:10.1073/pnas.2313332121).

Sequences and labels used below:
B1: TPR t1 (parent)
chain: GACCAAUCUGCCCUCAGAGCUCGAGAACAUCUUCGGAUGCAGAGGAGGCAGGCUUCGGUGGCGCGAUAGCGCCAACGUCCUCAACCUCCAAUGCAUCCCACCACAUGAUGAUGCCUGAAGAGCCUUGGUUUUUUG

Variants of B1 are the subject of this data set. Put plainly: polymerase ribozyme fitness, log enrichment relative to wild type (log ratio); higher = more active; in vitro selection for triplet polymerase activity. The method in brief: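 Both subunits of a heterodimeric triplet polymerase ribozyme were given their own mutant library, built by PCR and transcribed. Each library was annealed with a biotinylated primer, the partner subunit and triplets, incubated frozen at −7 °C, and its extended constructs gel-excised, captured on streptavidin beads and amplified by RT-PCR, all in one round done in triplicate. Fitness is the logarithm of genotype enrichment relative to wild-type enrichment, with replicates averaged by inverse-variance weighting. That logarithm is base 2, and Illumina-sequenced genotypes needed ≥10 input reads and ≥1 read per output.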
As for GACCAAUCUGCCCUCAGAGCUCGAGAACAUCUUCGGAUGCAGAGGAGGCAGGCUUCGGUGGCGCGAUAGCGCCAACGUCCUCAACCUCCAAUCCAUCCCACCACAUGAUGAUGCCUUAAGAGCCUUGGUUUUUUG [G93C G117U], the “polymerase ribozyme fitness (log ratio)” value is -2.87.

For GCCCAAUCUGCCUUCAGAGCUCGAGAACAUCUUCGGAUGCAGAGGAGGCAGGCUUCGGUGGCGCGAUAGCGCCAACAUCCUCAACCUCCAAUGCAUCCCACCACAUGAUGAUGCCUGAAGAGUCUUGGUUUUUUG [A2C C13U G77A C123U], the “polymerase ribozyme fitness (log ratio)” value was found to be 0.26. To GACCAAUCUGCCCUCAGAGCUCGAGAACAUCUUCGGAUGCAGAGGAGGCAGGCUUCGGUGGCCCGAUAGCGCCAACGUCGUCAACCUCCAAUGCAUCCCACCACAUGAUGAUGCCUGAAGAGCCUUGGUUUUUUG [G63C C80G] belongs -6.96; to GACCAAUCUGCCCUCAGAGCUCGAGAACAUCUUCGGAUGCGGAGGAGGGAGGCUUCGGGGGCGCGAUAGCGCCAACGUCCUCAACCUCCAAUGCAUCCCACCACAUGAUGAUGCCUGAAGAGCCUUGGUUUUUUG [A41G C49G U59G], -1.99; to GACCAAUCUGCCCUCAGAGCUCGAGAACAUCUUCGGAUGCAGAGGAGGCAGGCUUCGGUGGCGCGAUAGUGCCAACGUCCUCAACCUACAAUGCAUCCCACCACAUGAUGAUGCCUGAAGAGCCUUGGUUUUUUG [C70U C88A], -0.884. The value for GACCAAUCUGCCCUCAGAGCUCGAGAACAUCUUCGGAUGCAGAGGAGGCAGGCAUCGGUGGCGCGAUAGCGCCAACGUCCUCAACUUCCAAUGCAUUCCAGCACAUGAUGAUGCCUGAAGAGCCUUGGUUUUUUG [U54A C86U C97U C101G] was -2. In the case of GACCAAUCUGCCCUCAGAGGUCGAGAACAUCUUCGGAUGCAGAGGAGGCAGGCUUCGGUGGCGCGAUAGCGCCAACGUCCUCAACCUCCAAUGCAUCCCACCACAUGAUGAUGCUUGAAGCGCCUUGGUUUUUUG [C20G C115U A121C], the “polymerase ribozyme fitness (log ratio)” value is -6.48. On to GAACAAUCUGCCCUCAGAGCUCGAGAACAUCUUCGGAUGCAGAGGAGGCUGGCUUCGGUGGCGCGAUAGCGCCAACGUCUUCAACCUCCAAUGCAUCCCACCACAUGAUGAUGCCUGAAUAGCCUUGGUUUUUUG [C3A A50U C80U G120U], for which the “polymerase ribozyme fitness (log ratio)” value is -4.64. On to GACCAAUCUGACCUCAUAGCUCGAGAACAUCUUCGGAUGCAGAGGAGGCAGGCUUCGGUGGCGCGAUAGCGCCAACGUCCUCAACCUCCAAUGCAUCCCACCACAUGAUGAUGCGUGAAGAGGCUCGGUUUUUUG [C11A G17U C115G C123G U126C], for which the “polymerase ribozyme fitness (log ratio)” value is -3.25.

As to GACCAAUCUGCCCUCAGAGCUCGAGAACAUCUUCGGAUGCAGAGGAGGCAGGCUGCGGUGGCGCGAUAGCGCCAACGUCCUAAACCUCCAAUGCAUCCCACCACAUGAUGAUGCCUGAAGAGCCUUGGUUUUUUG [U55G C82A], the “polymerase ribozyme fitness (log ratio)” value is -0.266. Turning to GACCAAUCUGCCCUCAGAGCUCGAGAACAUCUUCGGAUGCAGAGGAGGCAGGCUUCGGUGGCGCGAUAGCGCCAACGUCCUCAUCCUCCAAUGCAUCCCACCACAUGAUGAUGCCUGAAGAGCCUUGGUUUCUUG [A84U U132C], the “polymerase ribozyme fitness (log ratio)” value is -0.244. To GACCAAUCUGCCCUCAGAGCUCGAGAACAUCUUCGGAUGCAGAGGAGGCAGGCUUCGGUGGCGCGAUAGCGCCAACGUCCACAAUCUCCAAUGCAUCCCACCACAUGAUGAUGCCUGAAGAGCCUUGGUUUUUUG [U81A C85U] belongs -2.56; to GACCACCCUGCCCUCAGAGCUCGAGAACAUCUUCGGAUGCAGAGGAGGCAGGCUUCGGUGGCGCGAUAGCGCCAACGUCCUCAACCUCCAAUGCAUCCCACCACAUGAUGAUGCCUGAAGAGCCUUGGUUUUUUG [A6C U7C], -0.0861. GACCACUCUGCCCUCAGAGCUCGAGAACAUCUUCGGAUGCAGACGAGGCAGGCUUCGGUGACGCGAUAGCGCCAACGUCAUCAACCUCCAAUGCAUCCCACCACAUGAUGAAGCCUGAAGAGCCUUGGUUUUUUG [A6C G44C G61A C80A U112A]: the “polymerase ribozyme fitness (log ratio)” value is -4.74. To GACCAAUCUGCCCUCAGAGCUCGAGAACAUCUUCGGAUGCAGAGUAGGCAGGCUUCGGUGGCGCGAUAGAGCCAACGUCCUCAAACUCCUAUGCAUCCCACCACAUGAUGAUGCCUGAAGAGCCUUGGUUUUUUG [G45U C70A C85A A90U] belongs -6.19; to GACCAAUCUGCCCUCAGAGCUCGAGAACAUCUUCGGAUGCGGUGGAGGCAGGCUUCGGUGUCGCGAUAGCGCCAACGUCCUCAACCUGCAAUGGAUCCCACCACAUGAUGAUGCCUAAAGAGCCUUGGUUUUUUG [A41G A43U G61U C88G C94G G117A], -7.23; to GACCAAUCUGCCCUCAGAGCUCGAGAACAUCUUCGGAUGCAGAGGAGGCAGGCUUCGGUAGCGCGAUAGCGCCAACGUCCUCAACCUCCAAUGCUUCCCACCACAUGAUGAUGCCUGAAGAGCCUUGGUUUUUUG [G60A A95U], -0.238.

For GACCAAUCUGCCCUCAGAGCUCGAGAACAUCUUCGGAUGCAAAGGAGGCAGGCUUCGGUGGCGCGAUAGCGCCAACGUCCUCAACCUCUAAUGCAUCCCACCACAUGAUGAUGCCUGAAGAGCCUUGGUUUUUUG [G42A C89U], the “polymerase ribozyme fitness (log ratio)” value is -1.16. Take GACCAAUCUGCCCUCAGAGCUCGAGAACAUCUUCGGAUGCAGAGGAGGCAGGCUUCGGUGACGCGAUAGCGCCAACGUCCUCAACCUCCAAUCCCUCCCACCACAUGAUGAUGCCUGAAGAGCCUUGGUUUUUUG [G61A G93C A95C]: the “polymerase ribozyme fitness (log ratio)” value was -1.24. Regarding GACCAAUCUGCCCUCAGAGCUCGAGAACAUCUUCGGAUGGAGUGGAGGCAGGCUUCGGAGGCGCGAUAGAGCCAACGUCCUCAACCUCCAAUGCAUCCCACCACAUGAUGAUGACUUAAGAGCCUUGGUUUUUUG [C40G A43U U59A C70A C114A G117U], the “polymerase ribozyme fitness (log ratio)” value is -6.29.

Regarding GACCAAUCUGCCCUCAUAGCUCGAGAACAUCUUCGGAUGCAGAGCAGGCAGGCUUCGGUGGUGCGAUAGCGCCAACGUCCUCAACCUCCAAUGCAUCCCACCACAUGAUGAUGCCUGAAGAGCCUUGGUUUUUUG [G17U G45C C62U], the “polymerase ribozyme fitness (log ratio)” value is -4.56.
